Laboratory results taken from US7488598B2, “Mutant purine nucleoside phosphorylase proteins and cellular delivery thereof” (priority 2001, dated 2009).
Values joined by “and” are separate entries in the source; they are usually repeats but may differ in a detail not shown here. Identical values can stand only once.

Key:
[1] = E. coli PNP enzyme activity with substrate 5′-NH2; settings: Table IV, 0 denotes no measurable activity
[2] = E. coli PNP enzyme activity with substrate allo-met; settings: Table IV, 0 denotes no measurable activity
[3] = E. coli PNP enzyme activity with substrate allo-acet; settings: Table IV, 0 denotes no measurable activity
[4] = E. coli PNP enzyme activity with substrate MeP-dR; settings: for Activity, MeP-dR: Table IV, 0 denotes no measurable activity; for Activity, MeP-dR / Percent of Control Activity, MeP-dR: substrate MeP-dR; for Percent of Control Activity, MeP-dR: percent of wild-type activity
[5] = E. coli PNP enzyme activity with substrate F-araA; settings: percent of wild-type activity
[6] = E. coli PNP enzyme activity with substrate 5′-S-phenyl; settings: Table IV, 0 denotes no measurable activity
[7] = E. coli PNP enzyme activity with substrate talo-acet; settings: Table IV, 0 denotes no measurable activity
[8] = E. coli PNP enzyme activity with substrate α-L-lyxo; settings: Table IV, 0 denotes no measurable activity
[9] = E. coli PNP enzyme activity with substrate 5′CONH2; settings: Table IV, 0 denotes no measurable activity
[10] = E. coli PNP enzyme activity with substrate talo-met; settings: Table IV, 0 denotes no measurable activity

Row | Molecule | Activity, 5′-NH2 [1] | Activity, allo-met [2] | Activity, allo-acet [3] [nmol/mg/h] | Activity, MeP-dR [4] | Percent of Control Activity, MeP-dR [4] [%] | activity toward substrates MeP-dR and F-araA (in words) ([4]; substrates MeP-dR and F-araA, Table I) | Percent of Control Activity, F-araA [5] [%] | Activity, 5′-S-phenyl [6] [nmol/mg/h] | Activity, talo-acet [7] [nmol/mg/h] | Activity, 5′-NH2 ([1]; listed as WT) | Activity, α-L-lyxo [8] [nmol/mg/h] | Activity, 5′CONH2 [9] [nmol/mg/h] | Activity, talo-met [10] [nmol/mg/h]
1 | M65V (protein, listed as Escherichia coli) MATPHINAEMGDFADVVLMPGDPLRAKYIAETFLEDAREVNNVRGMLGFTGTYKGRKISVMGHGVGIPSCSIYTKELITDFGVKKIIRVGSCGAVLPHVKLRDVVIGMGACTDSKVNRIRFKDHDFAAIADFDMVRNAVDAAKALGIDARVGNLFSADLFYSPDGEMFDVMEKYGILGVEMEAAGIYGVAAEFGAKALTICTVSDHIRTHEQTTAAERQTTFNDMIKIALESVLLGDKE | 760 nmol/mg/h and 1150 nmol/mg/h | 320 nmol/mg/h and 163 nmol/mg/h | 0 | 524,000 nmoles/mg/hour and 281,000 nmoles/mg/hour | 42 | retained some appreciable level of activity | 37 | 0 |  |  |  |  | 
2 | Wild-type: wild-type E. coli purine nucleoside phosphorylase (PNP) (protein, UniProt P0ABP8 2-239, looked up) Purine nucleoside …: ATPHINAEMGDFADVVLMPGDPLRAKYIAETFLEDAREVNNVRGMLGFTGTYKGRKISVMGHGMGIPSCSIYTKELITDFGVKKIIRVGSCGAVLPHVKLRDVVIGMGACTDSKVNRIRFKDHDFAAIADFDMVRNAVDAAKALGIDARVGNLFSADLFYSPDGEMFDVMEKYGILGVEMEAAGIYGVAAEFGAKALTICTVSDHIRTHEQTTAAERQTTFNDMIKIALESVLLGDKE |  |  | 0 | 740,000 nmoles/mg/hour | 100 |  | 100 | 0 | 0 | 960 nmol/mg/h and 1270 nmol/mg/h | 4500 | 18 | 962
